From publication PMC12699829, “Development of a glutamine-responsive MRI contrast agent” (Chemical Science, 2025)
Numbering of substitutions follows the chain as printed. Numbers in names are those of the source. Where two headings read alike, the source gives them in different places.

Tests used:
Format in all cases: physicochemical
[1] = T1 and T2 relaxivity measurements at 9.4 T (400 MHz NMR); details: for Holo/Apo % r1 Change / Holo/Apo % r2 Change: 37 °C; for r1 (Holo) / r2 (Holo) / r1 (Apo) / r2 (Apo): PBS buffer pH 7.4, 37 °C; for r1 (Holo) / r2 (Holo): with Gln; for r1 (Apo) / r2 (Apo): without Gln
Procedure: The effectiveness of a contrast agent depends on its “relaxivity”, which is measured in units of mM^−1 s^−1, and quantifies how much a given concentration of the contrast agent improves water relaxation rates. T1 and T2 relaxivities are denoted r1 and r2, respectively, and are calculated according to eqn (1):1 [drawing 1] Here, Ti and Ti^0 are the relaxation times in the presence and absence of the contrast agent, respectively, and [C] is the concentration of the contrast agent. […] The relaxivity of a contrast agent depends not only on the properties of the molecule but also on the strength of the magnetic field used for the measurement. Whereas early MRI instruments were relatively weak (<1 T), the modern clinical standard has risen to 1–3 T, wth an increasing number of even more powerful instruments (>3 T) in recent years. Thus, we performed relaxivity experiments at both the most clinically relevant field strengths 1.4 T and at the more cutting-edge field strength of 9.4 T.
10% D 2O (assay buffer). S tock solutions of swArM in assay buffer was prepared at1.11, 0.83, 0.56, and 0.28 mM. Apo- and holo-swArM samples were prepared from the same stock by adding either 20 μL assay buffer or 20 μL 0. 1 M Gln in assay buffer, to 180 μL of protein solution, respectively. Final protein concentrations were verified using the molar extinction coefficient ε28 0 = 25.9 mM -1 cm -1.
B. NM R M easu r ements . Relaxivities of all variants were determined at 37 °C from spectra taken at 9.4 T (400 mHz) using a Varian Inova 400 -MHz NMR spectrometer equipped with a Nalorac, 5 mm, DR probe. Select variants were also investigated at 32°C at 1.4 T (60 mHz) using a Nanalysis NMReady60 Pro instrument. Measurements were typically performed on 4 diffe rent concentrations of contrast agent and on the same buffer with no contrast agent. Temperature- dependent relaxivity measurements were performed using a Varian Inova 500-MHz NMR spectrometer, equipped with a Vari an, 5-mm, TR PFG probe with inverse proton detection. Temperature- dependent relaxivity was determined using either two concen trations of contrast agent ( 0. 5 and 1. 0 mM ) or t hree (0. 3, 0. 6, and 0.9 mM) . The temperature was calibrated using the 1H NMR signal of ethylene glycol.20 T1 measurements were performed using the inversion recovery method21 and T2 measurements were performed using the Carr–Purcell–Meiboom –G ill (CPMG) p ulse […]
Six or more pulse delay times (τ) were chosen to ensure coverage of the Ti under observation, and the delay between pulse sequences was set to at least 5-times T1.
Optimized 90° and 180° pulse widths were determined on the day of the experiment, and typically spanned 16‒2 0 μs (90° pulse width) and 32‒4 0 μs (180° pulse width). The delay in the CPMG pulse sequence was set to at least 50 times the 180° pulse width to allow at least four echo loops .
C. A n al ysi s . To determine Ti, data were analyzed via MestReNova software. For each spectrum, an integration was performed over the water peak, and the values obtained (dependent variable) were plotted against τ (independent variable). […]
then fit to a monoexponential decay according to Eq. 1. From these analyses, we obtain Ti for each sample concentration and type.
The quantity described by Eq. 2, where Ti at zero added sample is T0, was then plotted against the swArM concentration and a linear regression model was applied. The slope of this line gives the contrast agent relaxivity ri.

[2] = T1 and T2 relaxivity measurements at 1.4 T (60 MHz NMR); details: for Holo/Apo % r1 Change / Holo/Apo % r2 Change: 32 °C; for r1 (Holo) / r2 (Holo) / r1 (Apo) / r2 (Apo): PBS buffer pH 7.4, 32 °C; for r1 (Holo) / r2 (Holo): with Gln; for r1 (Apo) / r2 (Apo): without Gln
[3] = Stability of swArM samples prepared in PBS buffer for relaxivity studies
Description: Next, we set out to investigate alternative ligands to coordinate Ln^3+ ions. As shown in Chart 1, we investigated two DOTA derivatives (DOTA-mal^N and DOTA-mal^C) as well as an acyclic version of DOTA, diethylene triamine pentaacetic acid (DTPA), and a six-coordinate version of the eight-coordinate DOTA ligand, nonane triacetic acid (NOTA). […] This ligand has previously been tested with Gd^3+ as an MRI contrast agent in PBS buffer, with no reported stability issues.[40] The fact that conjugation to our protein decreased the kinetic stability of Gd(NOTA) exemplifies the impact of the specific protein environment.

[4] = free contrast agent control, PBS pH 7.4, 37 °C
[5] = listed as [Dy(DOTA-mal^N)]72-GlnBP

## O=C([O-])CN1CCN(CC(=O)[O-])CCN(CC(=O)[O-])CCN(CC(=O)[O-])CC1.[Gd+3] [Gd(DOTA), reference compound]
[1]; free contrast agent control
  +Gln/−Gln % r1 Change: 0 ± 3%
  +Gln/−Gln % r2 Change: 1 ± 6%
[1]; [4]
  r1 (+Gln): 2.80 ± 0.07 mM⁻¹ s⁻¹
  r1 (−Gln): 2.82 ± 0.04 mM⁻¹ s⁻¹
  r2 (+Gln): 3.6 ± 0.2 mM⁻¹ s⁻¹
  r2 (−Gln): 3.5 ± 0.1 mM⁻¹ s⁻¹

B1: [Gd(DOTA-mal^N)]72: swArM: Gd(DOTA-mal^N) metallocofactor covalently attached at Cys72 of T72C E. coli glutamine-binding protein (GlnBP) (conjugate, UniProt P0AEQ3 23-248, looked up, variant T72C)
Glutamine-binding periplasmic …: ADKKLVVATDTAFVPFEFKQGDKYVGFDVDLWAAIAKELKLDYELKPMDFSGIIPALQTKNVDLALAGITICDERKKAIDFSDGYYKSGLLVMVKANNNDVKSVKDLDGKVVAVKSGTGSVDYAKANIKTKDLRQFPNIDNAYMELGTNRADAVLHDTPNILYFIKTAGNGQFKAVGDSLEAQQYGIAFPKGSDELRDKVNGALKTLRENGTYNEIYKKWFGTEPK
modifications: Gd(DOTA-malN) at Cys72
[1]
  Holo/Apo % r1 Change: –1 ± 2%
  Holo/Apo % r2 Change: 20 ± 5%
  r1 (Holo): 4.32 ± 0.07 mM⁻¹ s⁻¹
  r2 (Holo): 43.2 ± 0.8 mM⁻¹ s⁻¹
  r1 (Apo): 4.35 ± 0.07 mM⁻¹ s⁻¹
  r2 (Apo): 36 ± 1 mM⁻¹ s⁻¹
[1]; listed as [Gd(DOTA-malN)]72
  r1 (Holo): 4.32 mM⁻¹ s⁻¹
  r1 (Apo): 4.35 mM⁻¹ s⁻¹
[2]
  Holo/Apo % r1 Change: 4 ± 2%
  Holo/Apo % r2 Change: 11 ± 2%
  r1 (Holo): 20.4 ± 0.3 mM⁻¹ s⁻¹
  r2 (Holo): 41.5 ± 0.4 mM⁻¹ s⁻¹
  r1 (Apo): 19.5 ± 0.4 mM⁻¹ s⁻¹
  r2 (Apo): 37.2 ± 0.7 mM⁻¹ s⁻¹
[2]; listed as [Gd(DOTA-malN)]72
  r1 (Holo): 20.4 mM⁻¹ s⁻¹
  r1 (Apo): 19.5 mM⁻¹ s⁻¹

B2: [Gd(DTPA-malN)]72: swArM: Gd complex of maleimide-functionalized DTPA attached at Cys72 of T72C-GlnBP (conjugate, UniProt P0AEQ3 23-248, looked up, variant T72C)
Glutamine-binding periplasmic …: B1 Glutamine-binding periplasmic …
modifications: Gd(DTPA-mal) at Cys72
notes: swArM: Gd complex of maleimide-functionalized DTPA attached at Cys72 of T72C-GlnBP
[1]
  Holo/Apo % r1 Change: 3 ± 3%
  Holo/Apo % r2 Change: 10 ± 10%
  r1 (Holo): 4.14 ± 0.05 mM⁻¹ s⁻¹
  r2 (Holo): 72 ± 4 mM⁻¹ s⁻¹
  r1 (Apo): 4.0 ± 0.1 mM⁻¹ s⁻¹
  r2 (Apo): 65 ± 4 mM⁻¹ s⁻¹
[3]
  stability of the swArM in PBS buffer (metal loss, precipitate): did not observe loss of metal to solution over time
[2]
  Holo/Apo % r1 Change: 7 ± 4%
  Holo/Apo % r2 Change: 11 ± 6%
  r1 (Holo): 17.8 mM⁻¹ s⁻¹
  r2 (Holo): 30.3 ± 0.9 mM⁻¹ s⁻¹
  r1 (Apo): 16.7 mM⁻¹ s⁻¹
  r2 (Apo): 27 ± 1 mM⁻¹ s⁻¹

B3: [Gd(DOTA-malN)]72-Q183K: swArM: Gd(DOTA-mal^N) on T72C/Q183K double variant of GlnBP (conjugate, UniProt P0AEQ3 23-248, looked up, variant T72C Q183K)
Glutamine-binding periplasmic …: B1 Glutamine-binding periplasmic … with Q183K
modifications: Gd(DOTA-malN) at Cys72
notes: swArM: Gd(DOTA-mal^N) on T72C/Q183K double variant of GlnBP
[1]
  r2 (Holo): 28.2 ± 0.8 mM⁻¹ s⁻¹
  r2 (Apo): 30.9 ± 0.2 mM⁻¹ s⁻¹

B4: [Dy(DOTA-mal^N)]72: swArM: Dy(DOTA-mal^N) attached at Cys72 of T72C-GlnBP (conjugate, UniProt P0AEQ3 23-248, looked up, variant T72C)
Glutamine-binding periplasmic …: B1 Glutamine-binding periplasmic …
modifications: Dy(DOTA-malN) at Cys72
notes: swArM: Dy(DOTA-mal^N) attached at Cys72 of T72C-GlnBP
[1]
  Holo/Apo % r1 Change: –1 ± 5%
  Holo/Apo % r2 Change: 36 ± 3%
  r1 (Holo): 0.37 ± 0.02 mM⁻¹ s⁻¹
  r1 (Apo): 0.37 ± 0.01 mM⁻¹ s⁻¹
  r2 (Apo): 6.83 ± 0.04 mM⁻¹ s⁻¹
[1]; [5]
  r2 (Holo): 9.3 ± 0.1 mM⁻¹ s⁻¹
  r2 (Apo): 6.86 ± 0.08 mM⁻¹ s⁻¹
[1]; listed as [Dy(DOTA-malN)]72
  r1 (Apo): 0.37 mM⁻¹ s⁻¹
[1]; apo/holo not specified
  r1 value: below the practical detection limit
[2]
  Holo/Apo % r1 Change: 4 ± 5%
  Holo/Apo % r2 Change: 40 ± 20%
  r1 (Holo): 0.201 mM⁻¹ s⁻¹
  r1 (Apo): 0.176 mM⁻¹ s⁻¹

B5: [Dy(DOTA-malN)]72-Q183Y: swArM: Dy(DOTA-mal^N) on T72C/Q183Y double variant of GlnBP (conjugate, UniProt P0AEQ3 23-248, looked up, variant T72C Q183Y)
Glutamine-binding periplasmic …: B1 Glutamine-binding periplasmic … with Q183Y
modifications: Dy(DOTA-malN) at Cys72
notes: swArM: Dy(DOTA-mal^N) on T72C/Q183Y double variant of GlnBP
[1]
  Holo/Apo % r2 Change: 29 ± 4%
  r2 (Holo): 18.0 ± 0.4 mM⁻¹ s⁻¹
  r2 (Apo): 14.0 ± 0.1 mM⁻¹ s⁻¹

B6: [Dy(DOTA-mal^N)]72-N127Y: swArM: Dy(DOTA-mal^N) on T72C/N127Y double variant of GlnBP (conjugate, UniProt P0AEQ3 23-248, looked up, variant T72C N127Y)
Glutamine-binding periplasmic …: B1 Glutamine-binding periplasmic … with N127Y
modifications: Dy(DOTA-malN) at Cys72
notes: swArM: Dy(DOTA-mal^N) on T72C/N127Y double variant of GlnBP
[1]
  Holo/Apo % r2 Change: 40 ± 7%
  r2 (Holo): 9.1 ± 0.2 mM⁻¹ s⁻¹
  r2 (Apo): 6.5 ± 0.3 mM⁻¹ s⁻¹

B7: [Dy(DOTA-malC)]72-A126Y: swArM: Dy(DOTA-mal^C), linker on carbon of carboxylate arm, on T72C/A126Y GlnBP (conjugate, UniProt P0AEQ3 23-248, looked up, variant T72C A126Y)
Glutamine-binding periplasmic …: B1 Glutamine-binding periplasmic … with A126Y
modifications: Dy(DOTA-malC) at Cys72
notes: swArM: Dy(DOTA-mal^C), linker on carbon of carboxylate arm, on T72C/A126Y GlnBP
[1]
  r2 (Holo): 9.6 ± 0.2 mM⁻¹ s⁻¹
  r2 (Apo): 9.7 ± 0.1 mM⁻¹ s⁻¹

B8: [Gd(NOTA)mal^N)]72-GlnBP: swArM: Gd complex of maleimide-functionalized NOTA attached at Cys72 of T72C-GlnBP (conjugate, UniProt P0AEQ3 23-248, looked up, variant T72C)
Glutamine-binding periplasmic …: B1 Glutamine-binding periplasmic …
modifications: Gd(NOTA-mal) at Cys72
[3]; PBS buffer
  stability of the swArM in PBS buffer (metal loss, precipitate): precipitate formation

B9: [Dy(DOTA-mal^N)]72-A126Y: swArM: Dy(DOTA-mal^N) on T72C/A126Y double variant of GlnBP (conjugate, UniProt P0AEQ3 23-248, looked up, variant T72C A126Y)
Glutamine-binding periplasmic …: B1 Glutamine-binding periplasmic … with A126Y
modifications: Dy(DOTA-malN) at Cys72
notes: swArM: Dy(DOTA-mal^N) on T72C/A126Y double variant of GlnBP
[1]
  Holo/Apo % r2 Change: 58 ± 6%
  r2 (Holo): 10.8 ± 0.2 mM⁻¹ s⁻¹
  r2 (Apo): 6.8 ± 0.2 mM⁻¹ s⁻¹

B10: [Dy(DOTA-malN)]72-A126D: swArM: Dy(DOTA-mal^N) on T72C/A126D double variant of GlnBP (conjugate, UniProt P0AEQ3 23-248, looked up, variant T72C A126D)
Glutamine-binding periplasmic …: B1 Glutamine-binding periplasmic … with A126D
modifications: Dy(DOTA-malN) at Cys72
notes: swArM: Dy(DOTA-mal^N) on T72C/A126D double variant of GlnBP
[1]
  Holo/Apo % r2 Change: 23 ± 5%
  r2 (Holo): 11.7 ± 0.09 mM⁻¹ s⁻¹
  r2 (Apo): 9.5 ± 0.3 mM⁻¹ s⁻¹

B11: [Dy(DOTA-malN)]72-G119K: swArM: Dy(DOTA-mal^N) on T72C/G119K double variant of GlnBP (conjugate, UniProt P0AEQ3 23-248, looked up, variant T72C G119K)
Glutamine-binding periplasmic …: B1 Glutamine-binding periplasmic … with G119K
modifications: Dy(DOTA-malN) at Cys72
notes: swArM: Dy(DOTA-mal^N) on T72C/G119K double variant of GlnBP
[1]
  Holo/Apo % r2 Change: 15 ± 4%
  r2 (Holo): 8.5 ± 0.2 mM⁻¹ s⁻¹
  r2 (Apo): 7.39 ± 0.07 mM⁻¹ s⁻¹
